Source: US20220204580A1 (AstraZeneca / MedImmune, published 2022)
Values belong to the binder of their own block, whether it stands above or below them. Numbered stars: 1 amine (or outer) side, 2 acyl side, 3 side chain; on linkers, the order of the positions; unused ones are H or OH. Bridge positions count the residues as written; N and C are the ends. Square brackets hold non-standard residues; d marks the D form. Side chains are listed from the residue outwards. Ends that are not written are not given here. * marks the point of attachment. C18 diacid = O=C(O)CCCCCCCCCCCCCCCCC(=O)*; γGlu = O=C(O)[C@H](CCC(=O)[*:2])N[*:1]; Aib = CC(C)(N)C(=O)O

Columns and labels:
[1] = molecular target: T1, human amylin receptor (calcitonin receptor co-expressed with receptor activity modifying protein, RAMP3) (human, UniProt P30988 25-474; O60896 24-148); experiment: cell-based or functional assay
T1 sequence (looked up) 1: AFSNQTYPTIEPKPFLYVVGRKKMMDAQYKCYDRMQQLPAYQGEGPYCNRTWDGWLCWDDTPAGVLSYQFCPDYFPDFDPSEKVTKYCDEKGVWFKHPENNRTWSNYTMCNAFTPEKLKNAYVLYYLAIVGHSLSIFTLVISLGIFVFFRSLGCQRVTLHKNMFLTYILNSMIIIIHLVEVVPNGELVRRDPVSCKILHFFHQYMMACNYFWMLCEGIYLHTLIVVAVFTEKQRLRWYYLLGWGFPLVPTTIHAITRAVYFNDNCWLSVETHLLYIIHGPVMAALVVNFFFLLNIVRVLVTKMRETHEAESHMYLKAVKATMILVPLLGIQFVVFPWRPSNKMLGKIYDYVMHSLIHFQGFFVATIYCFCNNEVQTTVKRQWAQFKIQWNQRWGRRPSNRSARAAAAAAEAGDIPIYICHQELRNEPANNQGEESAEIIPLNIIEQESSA
T1 sequence (looked up) 2: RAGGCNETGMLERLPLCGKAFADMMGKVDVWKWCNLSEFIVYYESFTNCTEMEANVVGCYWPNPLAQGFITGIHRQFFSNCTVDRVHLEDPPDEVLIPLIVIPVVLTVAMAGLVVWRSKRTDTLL

[2] = molecular target: T2, human calcitonin receptor (human, UniProt P30988 25-474); experiment: cell-based or functional assay
T2 sequence (looked up): T1 sequence (looked up) 1

EC50 (cAMP production) [1]: 0.418 nM
Ratio (EC50 hCTR / EC50 hAMYR3) [1]: 17
EC50 (cAMP production) [2]: 7.01 nM
B1: Peptide 66 (SEQ ID NO: 66) (peptide)
peptide: K([γGlu-γGlu-C18 diacid])KCNTATCATQRLANFLRHSS[Aib]NFGPILPPTNVGSNTY-NH2
modifications: disulfide 3-8; N-terminus assumed
SMILES: CC[C@H](C)[C@H](NC(=O)[C@@H]1CCCN1C(=O)CNC(=O)[C@H](Cc1ccccc1)NC(=O)[C@H](CC(N)=O)NC(=O)C(C)(C)NC(=O)[C@H](CO)NC(=O)[C@H](CO)NC(=O)[C@H](Cc1c[nH]cn1)NC(=O)[C@H](CCCNC(=N)N)NC(=O)[C@H](CC(C)C)NC(=O)[C@H](Cc1ccccc1)NC(=O)[C@H](CC(N)=O)NC(=O)[C@H](C)NC(=O)[C@H](CC(C)C)NC(=O)[C@H](CCCNC(=N)N)NC(=O)[C@H](CCC(N)=O)NC(=O)[C@@H](NC(=O)[C@H](C)NC(=O)[C@@H]1CSSC[C@H](NC(=O)[C@H](CCCCN)NC(=O)[C@@H](N)CCCCNC(=O)CC[C@H](NC(=O)CC[C@H](NC(=O)CCCCCCCCCCCCCCCCC(=O)O)C(=O)O)C(=O)O)C(=O)N[C@@H](CC(N)=O)C(=O)N[C@@H]([C@@H](C)O)C(=O)N[C@@H](C)C(=O)N[C@@H]([C@@H](C)O)C(=O)N1)[C@@H](C)O)C(=O)N[C@@H](CC(C)C)C(=O)N1CCC[C@H]1C(=O)N1CCC[C@H]1C(=O)N[C@H](C(=O)N[C@@H](CC(N)=O)C(=O)N[C@H](C(=O)NCC(=O)N[C@@H](CO)C(=O)N[C@@H](CC(N)=O)C(=O)N[C@H](C(=O)N[C@@H](Cc1ccc(O)cc1)C(N)=O)[C@@H](C)O)C(C)C)[C@@H](C)O

EC50 (cAMP production) [1]: 0.192 nM
Ratio (EC50 hCTR / EC50 hAMYR3) [1]: 9
EC50 (cAMP production) [2]: 1.77 nM
B2: Peptide 68 (SEQ ID NO: 68) (peptide)
peptide: {C18 diacid-γGlu}-CNTATCATQRLANFLVHSS[Aib]NFGPILPPTRVGSNTY-NH2
modifications: disulfide 1-6
SMILES: CC[C@H](C)[C@H](NC(=O)[C@@H]1CCCN1C(=O)CNC(=O)[C@H](Cc1ccccc1)NC(=O)[C@H](CC(N)=O)NC(=O)C(C)(C)NC(=O)[C@H](CO)NC(=O)[C@H](CO)NC(=O)[C@H](Cc1c[nH]cn1)NC(=O)[C@@H](NC(=O)[C@H](CC(C)C)NC(=O)[C@H](Cc1ccccc1)NC(=O)[C@H](CC(N)=O)NC(=O)[C@H](C)NC(=O)[C@H](CC(C)C)NC(=O)[C@H](CCCNC(=N)N)NC(=O)[C@H](CCC(N)=O)NC(=O)[C@@H](NC(=O)[C@H](C)NC(=O)[C@@H]1CSSC[C@H](NC(=O)CC[C@H](NC(=O)CCCCCCCCCCCCCCCCC(=O)O)C(=O)O)C(=O)N[C@@H](CC(N)=O)C(=O)N[C@@H]([C@@H](C)O)C(=O)N[C@@H](C)C(=O)N[C@@H]([C@@H](C)O)C(=O)N1)[C@@H](C)O)C(C)C)C(=O)N[C@@H](CC(C)C)C(=O)N1CCC[C@H]1C(=O)N1CCC[C@H]1C(=O)N[C@H](C(=O)N[C@@H](CCCNC(=N)N)C(=O)N[C@H](C(=O)NCC(=O)N[C@@H](CO)C(=O)N[C@@H](CC(N)=O)C(=O)N[C@H](C(=O)N[C@@H](Cc1ccc(O)cc1)C(N)=O)[C@@H](C)O)C(C)C)[C@@H](C)O

EC50 (cAMP production) [1]: 0.164 nM
Ratio (EC50 hCTR / EC50 hAMYR3) [1]: 10
EC50 (cAMP production) [2]: 1.57 nM
B3: Peptide 69 (SEQ ID NO: 69) (peptide)
peptide: K([γGlu-C18 diacid])KCNTATCATQRLANFLVHSS[Aib]NFGPILPPTRVGSNTY-NH2
modifications: disulfide 3-8; N-terminus assumed
SMILES: CC[C@H](C)[C@H](NC(=O)[C@@H]1CCCN1C(=O)CNC(=O)[C@H](Cc1ccccc1)NC(=O)[C@H](CC(N)=O)NC(=O)C(C)(C)NC(=O)[C@H](CO)NC(=O)[C@H](CO)NC(=O)[C@H](Cc1c[nH]cn1)NC(=O)[C@@H](NC(=O)[C@H](CC(C)C)NC(=O)[C@H](Cc1ccccc1)NC(=O)[C@H](CC(N)=O)NC(=O)[C@H](C)NC(=O)[C@H](CC(C)C)NC(=O)[C@H](CCCNC(=N)N)NC(=O)[C@H](CCC(N)=O)NC(=O)[C@@H](NC(=O)[C@H](C)NC(=O)[C@@H]1CSSC[C@H](NC(=O)[C@H](CCCCN)NC(=O)[C@@H](N)CCCCNC(=O)CC[C@H](NC(=O)CCCCCCCCCCCCCCCCC(=O)O)C(=O)O)C(=O)N[C@@H](CC(N)=O)C(=O)N[C@@H]([C@@H](C)O)C(=O)N[C@@H](C)C(=O)N[C@@H]([C@@H](C)O)C(=O)N1)[C@@H](C)O)C(C)C)C(=O)N[C@@H](CC(C)C)C(=O)N1CCC[C@H]1C(=O)N1CCC[C@H]1C(=O)N[C@H](C(=O)N[C@@H](CCCNC(=N)N)C(=O)N[C@H](C(=O)NCC(=O)N[C@@H](CO)C(=O)N[C@@H](CC(N)=O)C(=O)N[C@H](C(=O)N[C@@H](Cc1ccc(O)cc1)C(N)=O)[C@@H](C)O)C(C)C)[C@@H](C)O

EC50 (cAMP production) [1]: 0.149 nM
Ratio (EC50 hCTR / EC50 hAMYR3) [1]: 9
EC50 (cAMP production) [2]: 1.28 nM
B4: Peptide 64 (SEQ ID NO: 64) (peptide)
peptide: K([γGlu-C18 diacid])CNTATCATQRLANFLVHSS[Aib]NFGPILPPTNVGSRTY-NH2
modifications: disulfide 2-7; N-terminus assumed
SMILES: CC[C@H](C)[C@H](NC(=O)[C@@H]1CCCN1C(=O)CNC(=O)[C@H](Cc1ccccc1)NC(=O)[C@H](CC(N)=O)NC(=O)C(C)(C)NC(=O)[C@H](CO)NC(=O)[C@H](CO)NC(=O)[C@H](Cc1c[nH]cn1)NC(=O)[C@@H](NC(=O)[C@H](CC(C)C)NC(=O)[C@H](Cc1ccccc1)NC(=O)[C@H](CC(N)=O)NC(=O)[C@H](C)NC(=O)[C@H](CC(C)C)NC(=O)[C@H](CCCNC(=N)N)NC(=O)[C@H](CCC(N)=O)NC(=O)[C@@H](NC(=O)[C@H](C)NC(=O)[C@@H]1CSSC[C@H](NC(=O)[C@@H](N)CCCCNC(=O)CC[C@H](NC(=O)CCCCCCCCCCCCCCCCC(=O)O)C(=O)O)C(=O)N[C@@H](CC(N)=O)C(=O)N[C@@H]([C@@H](C)O)C(=O)N[C@@H](C)C(=O)N[C@@H]([C@@H](C)O)C(=O)N1)[C@@H](C)O)C(C)C)C(=O)N[C@@H](CC(C)C)C(=O)N1CCC[C@H]1C(=O)N1CCC[C@H]1C(=O)N[C@H](C(=O)N[C@@H](CC(N)=O)C(=O)N[C@H](C(=O)NCC(=O)N[C@@H](CO)C(=O)N[C@@H](CCCNC(=N)N)C(=O)N[C@H](C(=O)N[C@@H](Cc1ccc(O)cc1)C(N)=O)[C@@H](C)O)C(C)C)[C@@H](C)O

EC50 (cAMP production) [1]: 0.132 nM
Ratio (EC50 hCTR / EC50 hAMYR3) [1]: 30
EC50 (cAMP production) [2]: 4.01 nM
B5: Peptide 67 (SEQ ID NO: 67) (peptide)
peptide: K([γGlu-γGlu-C18 diacid])CNTATCATQRLANFLVHSS[Aib]NFGPILPPTRVGSNTY-NH2
modifications: disulfide 2-7; N-terminus assumed
SMILES: CC[C@H](C)[C@H](NC(=O)[C@@H]1CCCN1C(=O)CNC(=O)[C@H](Cc1ccccc1)NC(=O)[C@H](CC(N)=O)NC(=O)C(C)(C)NC(=O)[C@H](CO)NC(=O)[C@H](CO)NC(=O)[C@H](Cc1c[nH]cn1)NC(=O)[C@@H](NC(=O)[C@H](CC(C)C)NC(=O)[C@H](Cc1ccccc1)NC(=O)[C@H](CC(N)=O)NC(=O)[C@H](C)NC(=O)[C@H](CC(C)C)NC(=O)[C@H](CCCNC(=N)N)NC(=O)[C@H](CCC(N)=O)NC(=O)[C@@H](NC(=O)[C@H](C)NC(=O)[C@@H]1CSSC[C@H](NC(=O)[C@@H](N)CCCCNC(=O)CC[C@H](NC(=O)CC[C@H](NC(=O)CCCCCCCCCCCCCCCCC(=O)O)C(=O)O)C(=O)O)C(=O)N[C@@H](CC(N)=O)C(=O)N[C@@H]([C@@H](C)O)C(=O)N[C@@H](C)C(=O)N[C@@H]([C@@H](C)O)C(=O)N1)[C@@H](C)O)C(C)C)C(=O)N[C@@H](CC(C)C)C(=O)N1CCC[C@H]1C(=O)N1CCC[C@H]1C(=O)N[C@H](C(=O)N[C@@H](CCCNC(=N)N)C(=O)N[C@H](C(=O)NCC(=O)N[C@@H](CO)C(=O)N[C@@H](CC(N)=O)C(=O)N[C@H](C(=O)N[C@@H](Cc1ccc(O)cc1)C(N)=O)[C@@H](C)O)C(C)C)[C@@H](C)O

EC50 (cAMP production) [1]: 0.207 nM
Ratio (EC50 hCTR / EC50 hAMYR3) [1]: 31
EC50 (cAMP production) [2]: 6.4 nM
B6: Peptide 65 (SEQ ID NO: 65) (peptide)
peptide: K([γGlu-C18 diacid])KCNTATCATQRLANFLRHSS[Aib]NFGPILPPTNVGSNTY-NH2
modifications: disulfide 3-8; N-terminus assumed
SMILES: CC[C@H](C)[C@H](NC(=O)[C@@H]1CCCN1C(=O)CNC(=O)[C@H](Cc1ccccc1)NC(=O)[C@H](CC(N)=O)NC(=O)C(C)(C)NC(=O)[C@H](CO)NC(=O)[C@H](CO)NC(=O)[C@H](Cc1c[nH]cn1)NC(=O)[C@H](CCCNC(=N)N)NC(=O)[C@H](CC(C)C)NC(=O)[C@H](Cc1ccccc1)NC(=O)[C@H](CC(N)=O)NC(=O)[C@H](C)NC(=O)[C@H](CC(C)C)NC(=O)[C@H](CCCNC(=N)N)NC(=O)[C@H](CCC(N)=O)NC(=O)[C@@H](NC(=O)[C@H](C)NC(=O)[C@@H]1CSSC[C@H](NC(=O)[C@H](CCCCN)NC(=O)[C@@H](N)CCCCNC(=O)CC[C@H](NC(=O)CCCCCCCCCCCCCCCCC(=O)O)C(=O)O)C(=O)N[C@@H](CC(N)=O)C(=O)N[C@@H]([C@@H](C)O)C(=O)N[C@@H](C)C(=O)N[C@@H]([C@@H](C)O)C(=O)N1)[C@@H](C)O)C(=O)N[C@@H](CC(C)C)C(=O)N1CCC[C@H]1C(=O)N1CCC[C@H]1C(=O)N[C@H](C(=O)N[C@@H](CC(N)=O)C(=O)N[C@H](C(=O)NCC(=O)N[C@@H](CO)C(=O)N[C@@H](CC(N)=O)C(=O)N[C@H](C(=O)N[C@@H](Cc1ccc(O)cc1)C(N)=O)[C@@H](C)O)C(C)C)[C@@H](C)O
